Measurements reported in doi:10.1101/594168, “Pat1 activates late steps in mRNA decay by multiple mechanisms” (bioRxiv, 2019).
Numbering of substitutions follows the chain as printed. In names and notes the source's numbering stands.

B1: MBP-Pat1 317-754 (domain or fragment, S. pombe, UniProt O42958 317-754, looked up)
chain: MTRSDKSFIARIQISQLMSEDPESDDFYYRVYSIIRGRKPSEEEASHFIQTYLGPSNNRRRGRRSENPMQKLQQQLQRLVSSAKERPKATQLSLEGALGKIAVNTVRTPRQLLNVKRPTEPASSNSSLNNFSGFSTKKDVLHAIEKVYDLLLDFEQALRKASTLETTDQEQIDTWKTTLSEKLESIWKALYINESLEASSKTRPPFISIISHPKGMRLLPRLFPHLSKEQQISILKVVVYNFDSLDIVLRGTFDVNGELPLDVVSEMSSFTQFIIPPLLTIVNELDLETINNLFSQLLNRTNAVYLIQTKIGLSFLTLFISRAEILKQSGTVNQNEKEEWENTFNVMFNRVKGHFSTVFPPPNARAYADESYPWEFLAACATAASSEQHFTLVSETRDRVLDNIITSKRAPSEIAVVRISNVNLFLNAMGLDARQLSA
notes: also called PatMC lacking the LAR; source: E. coli BL21(DE3)*, purified (Ni-NTA, SEC); not shown: His6, N-terminal, kept; MBP, N-terminal, kept
B2: MBP-Pat1 296-431 (domain or fragment, S. pombe, UniProt O42958 296-431, looked up)
chain: LDEKRQKLERDHMLMAQCAGLMTRSDKSFIARIQISQLMSEDPESDDFYYRVYSIIRGRKPSEEEASHFIQTYLGPSNNRRRGRRSENPMQKLQQQLQRLVSSAKERPKATQLSLEGALGKIAVNTVRTPRQLLNV
notes: also called construct containing most of the middle domain of Pat1; source: E. coli BL21(DE3)*, purified (Ni-NTA, SEC); not shown: His6, N-terminal, kept; MBP, N-terminal, kept
B3: MBP-PatMC (Pat1 residues 296-754) (domain or fragment, S. pombe, UniProt O42958 296-754, looked up)
chain: LDEKRQKLERDHMLMAQCAGLMTRSDKSFIARIQISQLMSEDPESDDFYYRVYSIIRGRKPSEEEASHFIQTYLGPSNNRRRGRRSENPMQKLQQQLQRLVSSAKERPKATQLSLEGALGKIAVNTVRTPRQLLNVKRPTEPASSNSSLNNFSGFSTKKDVLHAIEKVYDLLLDFEQALRKASTLETTDQEQIDTWKTTLSEKLESIWKALYINESLEASSKTRPPFISIISHPKGMRLLPRLFPHLSKEQQISILKVVVYNFDSLDIVLRGTFDVNGELPLDVVSEMSSFTQFIIPPLLTIVNELDLETINNLFSQLLNRTNAVYLIQTKIGLSFLTLFISRAEILKQSGTVNQNEKEEWENTFNVMFNRVKGHFSTVFPPPNARAYADESYPWEFLAACATAASSEQHFTLVSETRDRVLDNIITSKRAPSEIAVVRISNVNLFLNAMGLDARQLSA
notes: The MBP tag was not removed from constructs that contain the middle domain; also called SpPatMC; H6MBP-PatMC; source: E. coli BL21(DE3)*, purified (Ni-NTA, SEC); not shown: His6, N-terminal, kept; MBP, N-terminal, kept
B4: MBP-PatMC L457A/E461K (domain or fragment, S. pombe, UniProt O42958 296-754, looked up)
chain: B3 chain with L162A, E166K
notes: also called SpPatMC L457A/E461K; Mut; source: E. coli BL21(DE3)*, purified (Ni-NTA, SEC); not shown: His6, N-terminal, kept; MBP, N-terminal, kept

biological target: T1, Lsm1-7 complex (S. pombe, UniProt P87173 1-140; O94408 1-96; Q9Y7M4 1-93; O14352 1-121; O42978 1-80; Q9UUI1 1-75; …); assay: pull-down; 10 µM MBP-tagged Pat1 construct and 10 µM Lsm1-7 mixed 15 min at room temperature, bound to amylose beads, washed four times, eluted with 10 mM maltose; SEC buffer (20 mM HEPES pH 7, 150 mM NaCl, 1 mM DTT); SDS-PAGE, Instant Blue stain; details: both partners purified
T1 construct: Lsm1, S. pombe; Lsm2, S. pombe; Lsm3, S. pombe; Lsm4, S. pombe; Lsm5, S. pombe; Lsm6, S. pombe; Lsm7, S. pombe; Heteroheptameric ring formed beforehand; the His6-TEV tag stood on the N-terminus of Lsm1 and was cleaved with TEV protease; also called Lsm1-7 ring; source: E. coli BL21(DE3)*, co-expressed from a polycistronic gene, purified (Ni-NTA, heparin, SEC); not shown: His6, N-terminal, …

Binder | binding result
B1 | binds
B2 | binds
B3 | binds
B4 | binds
